Assay results as given in paper doi:10.1101/2024.01.09.574928.
Read-outs that look alike come from different tables or passages of the source.

Tests used:
[1] = target: T1, SCAF4-CID (human, UniProt O95104 1-139); assay: competition FP
T1 sequence: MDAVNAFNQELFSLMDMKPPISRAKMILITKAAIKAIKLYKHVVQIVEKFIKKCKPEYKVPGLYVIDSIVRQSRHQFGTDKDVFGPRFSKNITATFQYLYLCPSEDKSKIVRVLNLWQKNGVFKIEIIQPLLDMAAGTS

[2] = target: T1, SCAF4-CID; assay: SPR
[3] = target: T2, SCAF8-CID (human, UniProt Q9UPN6 1-139); assay: competition FP
T2 sequence: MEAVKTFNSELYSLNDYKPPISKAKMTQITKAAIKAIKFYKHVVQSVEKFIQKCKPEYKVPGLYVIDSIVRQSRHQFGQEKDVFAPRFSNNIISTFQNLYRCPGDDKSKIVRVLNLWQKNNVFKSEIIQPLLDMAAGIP

[4] = target: T2, SCAF8-CID; assay: SPR
[5] = target: T2, SCAF8-CID; assay: SPR; remark: listed apart in the source
[6] = target: T3, SCAF4-CID R112A (human, UniProt O95104 1-139, R112A); assay: fluorescence polarization
T3 sequence: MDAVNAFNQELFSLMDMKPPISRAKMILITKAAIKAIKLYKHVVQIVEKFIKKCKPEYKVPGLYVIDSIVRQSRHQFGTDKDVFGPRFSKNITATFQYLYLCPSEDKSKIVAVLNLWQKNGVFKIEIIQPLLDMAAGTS

[7] = target: T1, SCAF4-CID; assay: fluorescence polarization
[8] = target: T4, SCAF4-CID R71A (human, UniProt O95104 1-139, R71A); assay: fluorescence polarization
T4 sequence: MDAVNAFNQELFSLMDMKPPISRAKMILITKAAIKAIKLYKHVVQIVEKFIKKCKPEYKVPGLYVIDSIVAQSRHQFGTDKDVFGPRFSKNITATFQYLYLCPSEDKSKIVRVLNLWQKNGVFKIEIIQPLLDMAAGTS

[9] = target: T5, SCAF4-CID R21A (human, UniProt O95104 1-139, R23A); assay: fluorescence polarization
T5 sequence: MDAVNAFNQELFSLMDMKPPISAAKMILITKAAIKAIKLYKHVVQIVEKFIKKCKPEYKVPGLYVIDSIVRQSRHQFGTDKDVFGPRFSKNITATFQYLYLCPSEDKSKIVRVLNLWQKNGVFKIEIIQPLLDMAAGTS

[10] = target: T1, SCAF4-CID; assay: competition FP; remark: listed apart in the source
[11] = target: T2, SCAF8-CID; assay: competition FP; remark: listed apart in the source
[12] = target: T6, WDR5 (UniProt P61964 22-334); assay: SPR
[13] = target: T6, WDR5; assay: competition FP
[14] = target: WDR5 L240K (UniProt P61964 22-334, L240K); assay: fluorescence polarization
[15] = target: T6, WDR5; assay: fluorescence polarization

Work on TGGTGGGA (ssDNA) [D1_8nt] yielded an IC50 [1] of 1270 ± 864 nM.

With GGGTGGGA (ssDNA) [F1_8nt] the Kd [2] was 88.6 ± 15.1 nM and the IC50 [1] was 554 ± 106 nM.

In the case of GGGGTGGGGAG (ssDNA) [SRiApt-1 (SCAF4_F3_11nt)], the Kd [2] is reported as 58.4 ± 5.8 nM, the IC50 [3] is reported as 1500 ± 690 nM and the IC50 [1] is reported as 832 ± 303 nM. The Kd [4] was 56.3 ± 7.42 nM.

In the case of AGGTGGGT (ssDNA) [B2_8nt], the Kd [2] is reported as 297 ± 48.1 nM and the IC50 [1] is reported as 1280 ± 742 nM.

In the case of CAGGTGGGTTC (ssDNA) [SRiApt-2 (F7_11nt_B)], the Kd [5] is reported as 90.5 ± 25.8 nM, the Kd [2] is reported as 73.8 ± 30.8 nM and the IC50 [3] is reported as 2690 ± 1430 nM. It also gave an IC50 [1] of 400 ± 143 nM.

TTAAAGGGGTGGGGAGTCAT (ssDNA) [SRiApt-3] showed a Kd [5] of 69.9 ± 14 nM, a Kd [2] of 22.7 ± 1 nM and an IC50 [3] of 291 ± 19.7 nM. The IC50 [1] was 285 ± 26.6 nM.

In the case of GTGGG (ssDNA) [SCAF4_LS (D2_5nt)], the Kd [5] is reported as 76.4 ± 7.33 nM, the Kd [2] is reported as 140 ± 40.1 nM and the Kd [6] is reported as 672 ± 171 nM. The Kd [7] was 189 ± 40.1 nM, the Kd [8] was 786 ± 491 nM and the Kd [9] was 416 ± 39.5 nM. It also gave an IC50 [10] of 2750 ± 682 nM and an IC50 [11] of 1960 ± 240 nM.

GGGGGCTGGACCCCTCAACT (structured_DNA) [WMiApt-1] was tested, and the Kd [12] was 138 ± 86.7 nM, the IC50 [13] was 431 ± 134 nM and the binding result [14] was “binds”. It also gave a Kd [15] of 797 ± 95.2 nM.

GGACCGGACC (ssDNA) [bivalent WDR5 lead] showed an IC50 [13] of 8500 ± 4250 nM.
